B1: Zinc finger protein 473 (Homo sapiens), Q8WTR7 (parent)
chain: MAEEFVTLKDVGMDFTLGDWEQLGLEQGDTFWDTALDNCQDLFLLDPPRPNLTSHPDGSEDLEPLAGGSPEATSPDVTETKNSPLMEDFFEEGFSQEIIEMLSKDGFWNSNFGEACIEDTWLDSLLGDPESLLRSDIATNGESPTECKSHELKRGLSPVSTVSTGEDSMVHNVSEKTLTPAKSKEYRGEFFSYSDHSQQDSVQEGEKPYQCSECGKSFSGSYRLTQHWITHTREKPTVHQECEQGFDRNASLSVYPKTHTGYKFYVCNEYGTTFSQSTYLWHQKTHTGEKPCKSQDSDHPPSHDTQPGEHQKTHTDSKSYNCNECGKAFTRIFHLTRHQKIHTRKRYECSKCQATFNLRKHLIQHQKTHAAKTTSECQECGKIFRHSSLLIEHQALHAGEEPYKCNERGKSFRHNSTLKIHQRVHSGEKPYKCSECGKAFHRHTHLNEHRRIHTGYRPHKCQECVRSFSRPSHLMRHQAIHTAEKPYSCAECKETFSDNNRLVQHQKMHTVKTPYECQECGERFICGSTLKCHESVHAREKQGFFVSGKILDQNPEQKEKCFKCNKCEKTFSCSKYLTQHERIHTRGVKPFECDQCGKAFGQSTRLIHHQRIHSRVRLYKWGEQGKAISSASLIKLQSFHTKEHPFKCNECGKTFSHSAHLSKHQLIHAGENPFKCSKCDRVFTQRNYLVQHERTHARKKPLVCNECGKTFRQSSCLSKHQRIHSGEKPYVCDYCGKAFGLSAELVRHQRIHTGEKPYVCQECGKAFTQSSCLSIHRRVHTGEKPYRCGECGKAFAQKANLTQHQRIHTGEKPYSCNVCGKAFVLSAHLNQHLRVHTQETLYQCQRCQKAFRCHSSLSRHQRVHNKQQYCL
partner: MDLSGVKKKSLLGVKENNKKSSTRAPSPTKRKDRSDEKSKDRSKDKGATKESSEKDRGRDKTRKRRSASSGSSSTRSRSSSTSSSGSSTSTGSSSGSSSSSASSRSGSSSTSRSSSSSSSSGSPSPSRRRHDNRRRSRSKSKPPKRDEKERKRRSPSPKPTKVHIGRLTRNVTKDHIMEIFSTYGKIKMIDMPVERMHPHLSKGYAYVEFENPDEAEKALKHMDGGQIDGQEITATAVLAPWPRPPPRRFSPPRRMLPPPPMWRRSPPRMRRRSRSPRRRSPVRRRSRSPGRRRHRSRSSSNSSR
B2: Annexin A10 (Homo sapiens), Q9UJ72 (parent)
chain: MFCGDYVQGTIFPAPNFNPIMDAQMLGGALQGFDCDKDMLINILTQRCNAQRMMIAEAYQSMYGRDLIGDMREQLSDHFKDVMAGLMYPPPLYDAHELWHAMKGVGTDENCLIEILASRTNGEIFQMREAYCLQYSNNLQEDIYSETSGHFRDTLMNLVQGTREEGYTDPAMAAQDAMVLWEACQQKTGEHKTMLQMILCNKSYQQLRLVFQEFQNISGQDMVDAINECYDGYFQELLVAIVLCVRDKPAYFAYRLYSAIHDFGFHNKTVIRILIARSEIDLLTIRKRYKERYGKSLFHDIRNFASGHYKKALLAICAGDAEDY
partner: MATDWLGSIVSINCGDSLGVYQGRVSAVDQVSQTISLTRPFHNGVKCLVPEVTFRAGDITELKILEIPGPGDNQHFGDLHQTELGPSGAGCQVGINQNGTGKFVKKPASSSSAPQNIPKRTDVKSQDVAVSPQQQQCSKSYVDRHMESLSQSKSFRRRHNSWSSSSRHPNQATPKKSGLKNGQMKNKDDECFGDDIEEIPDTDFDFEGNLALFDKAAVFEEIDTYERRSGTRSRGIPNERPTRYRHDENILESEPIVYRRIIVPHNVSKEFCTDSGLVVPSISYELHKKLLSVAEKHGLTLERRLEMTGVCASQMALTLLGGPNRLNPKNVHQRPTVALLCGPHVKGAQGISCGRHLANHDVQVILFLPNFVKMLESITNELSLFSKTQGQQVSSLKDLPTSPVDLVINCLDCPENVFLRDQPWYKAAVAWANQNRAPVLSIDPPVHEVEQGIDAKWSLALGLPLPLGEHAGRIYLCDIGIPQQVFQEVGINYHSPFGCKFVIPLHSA
B3: KAT8 regulatory NSL complex subunit 1 (Homo sapiens), Q7Z3B3 (parent)
chain: MAAMAPALTDAAAEAHHIRFKLAPPSSTLSPGSAENNGNANILIAANGTKRKAIAAEDPSLDFRNNPTKEDLGKLQPLVASYLCSDVTSVPSKESLKLQGVFSKQTVLKSHPLLSQSYELRAELLGRQPVLEFSLENLRTMNTSGQTALPQAPVNGLAKKLTKSSTHSDHDNSTSLNGGKRALTSSALHGGEMGGSESGDLKGGMTNCTLPHRSLDVEHTTLYSNNSTANKSSVNSMEQPALQGSSRLSPGTDSSSNLGGVKLEGKKSPLSSILFSALDSDTRITALLRRQADIESRARRLQKRLQVVQAKQVERHIQHQLGGFLEKTLSKLPNLESLRPRSQLMLTRKAEAALRKAASETTTSEGLSNFLKSNSISEELERFTASGIANLRCSEQAFDSDVTDSSSGGESDIEEEELTRADPEQRHVPLRRRSEWKWAADRAAIVSRWNWLQAHVSDLEYRIRQQTDIYKQIRANKGLIVLGEVPPPEHTTDLFLPLSSEVKTDHGTDKLIESVSQPLENHGAPIIGHISESLSTKSCGALRPVNGVINTLQPVLADHIPGDSSDAEEQLHKKQRLNLVSSSSDGTCVAARTRPVLSCKKRRLVRPNSIVPLSKKVHRNSTIRPGCDVNPSCALCGSGSINTMPPEIHYEAPLLERLSQLDSCVHPVLAFPDDVPTSLHFQSMLKSQWQNKPFDKIKPPKKLSLKHRAPMPGSLPDSARKDRHKLVSSFLTTAKLSHHQTRPDRTHRQHLDDVGAVPMVERVTAPKAERLLNPPPPVHDPNHSKMRLRDHSSERSEVLKHHTDMSSSSYLAATHHPPHSPLVRQLSTSSDSPAPASSSSQVTASTSQQPVRRRRGESSFDINNIVIPMSVAATTRVEKLQYKEILTPSWREVDLQSLKGSPDEENEEIEDLSDAAFAALHAKCEEMERARWLWTTSVPPQRRGSRSYRSSDGRTTPQLGSANPSTPQPASPDVSSSHSLSEYSHGQSPRSPISPELHSAPLTPVARDTPRHLASEDTRCSTPELGLDEQSVQPWERRTFPLAHSPQAECEDQLDAQERAARCTRRTSGSKTGRETEAAPTSPPIVPLKSRHLVAAATAQRPTHR
partner: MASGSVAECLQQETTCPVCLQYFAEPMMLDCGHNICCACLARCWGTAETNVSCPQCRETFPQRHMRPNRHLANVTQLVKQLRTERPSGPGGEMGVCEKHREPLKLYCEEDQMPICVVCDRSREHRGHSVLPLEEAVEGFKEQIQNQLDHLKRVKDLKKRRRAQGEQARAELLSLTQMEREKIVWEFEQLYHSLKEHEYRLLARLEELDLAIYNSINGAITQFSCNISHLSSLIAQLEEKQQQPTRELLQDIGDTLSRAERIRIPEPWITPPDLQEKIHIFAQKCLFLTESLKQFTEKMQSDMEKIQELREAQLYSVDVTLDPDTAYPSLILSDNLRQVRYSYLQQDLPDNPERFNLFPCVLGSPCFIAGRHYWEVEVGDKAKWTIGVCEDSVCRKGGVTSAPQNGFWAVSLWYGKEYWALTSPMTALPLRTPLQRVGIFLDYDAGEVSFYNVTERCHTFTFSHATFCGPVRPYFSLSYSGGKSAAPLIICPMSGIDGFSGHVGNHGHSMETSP
B4: Zinc finger CCCH-type with G patch domain-containing protein (Homo sapiens), Q8N5A5 (parent)
chain: MDEESLESALQTYRAQLQQVELALGAGLDSSEQADLRQLQGDLKELIELTEASLVSVRKSSLLAALDEERPGRQEDAEYQAFREAITEAVEAPAAARGSGSETVPKAEAGPESAAGGQEEEEGEDEEELSGTKVSAPYYSSWGTLEYHNAMVVGTEEAEDGSAGVRVLYLYPTHKSLKPCPFFLEGKCRFKENCRFSHGQVVSLDELRPFQDPDLSSLQAGSACLAKHQDGLWHAARITDVDNGYYTVKFDSLLLREAVVEGDGILPPLRTEATESDSDSDGTGDSSYARVVGSDAVDSAQSSALCPSLAVVGSDAVDSGTCSSAFAGWEVHTRGIGSRLLTKMGYEFGKGLGRHAEGRVEPIHAVVLPRGKSLDQCVETLQKQTRVGKAGTNKPPRCRGRGARPGGRPAPRNVFDFLNEKLQGQAPGALEAGAAPAGRRSKDMYHASKSAKRALSLRLFQTEEKIERTQRDIRSIQEALARNAGRHSVASAQLQEKLAGAQRQLGQLRAQEAGLQQEQRKADTHKKMTEF
partner: B3 partner
B5: TBC1 domain family member 5 (Homo sapiens), Q92609 (parent)
chain: MYHSLSETRHPLQPEEQEVGIDPLSSYSNKSGGDSNKNGRRTSSTLDSEGTFNSYRKEWEELFVNNNYLATIRQKGINGQLRSSRFRSICWKLFLCVLPQDKSQWISRIEELRAWYSNIKEIHITNPRKVVGQQDLMINNPLSQDEGSLWNKFFQDKELRSMIEQDVKRTFPEMQFFQQENVRKILTDVLFCYARENEQLLYKQGMHELLAPIVFVLHCDHQAFLHASESAQPSEEMKTVLNPEYLEHDAYAVFSQLMETAEPWFSTFEHDGQKGKETLMTPIPFARPQDLGPTIAIVTKVNQIQDHLLKKHDIELYMHLNRLEIAPQIYGLRWVRLLFGREFPLQDLLVVWDALFADGLSLGLVDYIFVAMLLYIRDALISSNYQTCLGLLMHYPFIGDVHSLILKALFLRDPKRNPRPVTYQFHPNLDYYKARGADLMNKSRTNAKGAPLNINKVSNSLINFGRKLISPAMAPGSAGGPVPGGNSSSSSSVVIPTRTSAEAPSHHLQQQQQQQRLMKSESMPVQLNKGLSSKNISSSPSVESLPGGREFTGSPPSSATKKDSFFSNISRSRSHSKTMGRKESEEELEAQISFLQGQLNDLDAMCKYCAKVMDTHLVNIQDVILQENLEKEDQILVSLAGLKQIKDILKGSLRFNQSQLEAEENEQITIADNHYCSSGQGQGRGQGQSVQMSGAIKQASSETPGCTDRGNSDDFILISKDDDGSSARGSFSGQAQPLRTLRSTSGKSQAPVCSPLVFSDPLMGPASASSSNPSSSPDDDSSKDSGFTIVSPLDI
B6: Notch homolog 2 N-terminal-like protein A (Homo sapiens), Q7Z3S9 (parent)
chain: MCVTYHNGTGYCKCPEGFLGEYCQHRDPCEKNRCQNGGTCVAQAMLGKATCRCASGFTGEDCQYSTSHPCFVSRPCLNGGTCHMLSRDTYECTCQVGFTGKECQWTDACLSHPCANGSTCTTVANQFSCKCLTGFTGQKCETDVNECDIPGHCQHGGTCLNLPGSYQCQCLQGFTGQYCDSLYVPCAPSPCVNGGTCRQTGDFTFECNCLPETVRRGTELWERDREVWNGKEHDEN
partner: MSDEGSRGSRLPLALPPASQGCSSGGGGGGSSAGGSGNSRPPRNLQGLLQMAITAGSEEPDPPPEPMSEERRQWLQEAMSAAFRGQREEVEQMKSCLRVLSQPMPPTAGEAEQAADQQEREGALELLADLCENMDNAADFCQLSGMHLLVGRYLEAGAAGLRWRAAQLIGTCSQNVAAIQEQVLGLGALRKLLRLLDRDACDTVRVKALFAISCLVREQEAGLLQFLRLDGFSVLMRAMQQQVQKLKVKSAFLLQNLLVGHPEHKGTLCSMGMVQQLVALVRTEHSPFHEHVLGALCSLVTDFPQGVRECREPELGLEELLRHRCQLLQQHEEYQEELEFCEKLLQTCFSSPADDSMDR
B7: Putative RNA-binding protein Luc7-like 2 (Homo sapiens), Q9Y383 (parent)
chain: MSAQAQMRAMLDQLMGTSRDGDTTRQRIKFSDDRVCKSHLLNCCPHDVLSGTRMDLGECLKVHDLALRADYEIASKEQDFFFELDAMDHLQSFIADCDRRTEVAKKRLAETQEEISAEVAAKAERVHELNEEIGKLLAKVEQLGAEGNVEESQKVMDEVEKARAKKREAEEVYRNSMPASSFQQQKLRVCEVCSAYLGLHDNDRRLADHFGGKLHLGFIEIREKLEELKRVVAEKQEKRNQERLKRREEREREEREKLRRSRSHSKNPKRSRSREHRRHRSRSMSRERKRRTRSKSREKRHRHRSRSSSRSRSRSHQRSRHSSRDRSRERSKRRSSKERFRDQDLASCDRDRSSRDRSPRDRDRKDKKRSYESANGRSEDRRSSEEREAGEI
partner: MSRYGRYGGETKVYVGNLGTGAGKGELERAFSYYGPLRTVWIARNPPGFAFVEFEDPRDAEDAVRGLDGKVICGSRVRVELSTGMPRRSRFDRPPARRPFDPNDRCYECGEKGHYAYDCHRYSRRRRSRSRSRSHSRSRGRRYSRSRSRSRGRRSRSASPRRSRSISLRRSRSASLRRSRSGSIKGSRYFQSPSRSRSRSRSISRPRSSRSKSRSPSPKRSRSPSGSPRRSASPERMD

Variants of: B1
Details: with rnps1_human RNPS1, Q15287

effect of a mutation on the interaction	Variant
with no effect	Y456H
disrupting interaction strength	R605Q

Variants of: B2
Details: with edc3_human EDC3, Q96F86

effect of a mutation on the interaction	Variant
with no effect	F234S
disrupting interaction strength	M62T
with no effect	M71L

Variants of: B3
Details: with tri27_human TRIM27, P14373

effect of a mutation on the interaction	Variant
with no effect	N225D
with no effect	K104T

Variants of: B4
Details: with tri27_human TRIM27, P14373

effect of a mutation on the interaction	Variant
with no effect	S61R

Variants of: B5
Details: with ap2m1_human AP2M1, Q96CW1
Chain of ap2m1_human AP2M1, Q96CW1 (Q96CW1 whole entry): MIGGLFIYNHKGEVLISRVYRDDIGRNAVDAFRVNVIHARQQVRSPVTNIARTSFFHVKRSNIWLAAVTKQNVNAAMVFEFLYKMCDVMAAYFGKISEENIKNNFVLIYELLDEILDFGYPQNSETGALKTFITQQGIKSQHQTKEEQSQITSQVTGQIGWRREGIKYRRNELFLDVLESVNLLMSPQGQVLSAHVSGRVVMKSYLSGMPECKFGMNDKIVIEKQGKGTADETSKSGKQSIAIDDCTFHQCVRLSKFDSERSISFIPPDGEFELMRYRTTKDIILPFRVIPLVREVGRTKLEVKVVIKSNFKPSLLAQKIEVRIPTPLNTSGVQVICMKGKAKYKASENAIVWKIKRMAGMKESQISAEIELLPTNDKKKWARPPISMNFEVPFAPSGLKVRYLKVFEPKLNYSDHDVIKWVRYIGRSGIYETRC

effect of a mutation on the interaction	Variant
with no effect	Y375C

Variants of: B6
Details: with hpbp1_human HSPBP1, Q9NZL4

effect of a mutation on the interaction	Variant
with no effect	A115T
with no effect	R74Q

Variants of: B7
Details: with srsf7_human SRSF7, Q16629

effect of a mutation on the interaction	Variant
with no effect	K368Q

Reference: IntAct's records for PubMed 31515488
